Columns and labels:
[1] = molecular target: T1, 人4-1BB (h4-1BB) antigen protein, coated on ELISA plates (human, UniProt Q07011 24-186); test: ELISA, antigen coated at 1 ug/ml, antibody 1000 to 0.24 ng/ml
T1 construct: Soluble antigen for plate coating; also called 人抗原4-1BB; 抗原人H4-1BB蛋白

[2] = molecular target: T2, 人4-1BB on CHO-K1 cells (CHO-h4-1BB) (human, UniProt Q07011 24-255); test: FACS on CHO-h4-1BB cells, antibody 20 to 0.027 ug/ml
T2 construct: whole, on cells; also called 高表达人4-1BB的CHO-K1细胞株
T2 sequence (Q07011 24-255): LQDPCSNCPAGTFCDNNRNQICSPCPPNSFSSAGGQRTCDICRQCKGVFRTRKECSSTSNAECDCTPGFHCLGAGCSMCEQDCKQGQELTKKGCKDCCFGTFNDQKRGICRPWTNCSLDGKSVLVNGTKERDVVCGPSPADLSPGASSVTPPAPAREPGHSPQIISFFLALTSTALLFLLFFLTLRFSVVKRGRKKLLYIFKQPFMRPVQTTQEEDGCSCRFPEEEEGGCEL

T1 sequence (Q07011 24-186 limits assumed): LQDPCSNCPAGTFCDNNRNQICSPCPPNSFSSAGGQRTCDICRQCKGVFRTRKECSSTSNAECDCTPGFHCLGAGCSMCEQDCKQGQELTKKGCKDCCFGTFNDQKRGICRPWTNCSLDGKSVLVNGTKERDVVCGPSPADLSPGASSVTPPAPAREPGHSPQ

binding result [1]: binds | binding result [2]: binds
B1: 单克隆抗体HKB6 (抗人4-1BB抗体) (antibody, mouse IgG1, kappa, V domains shown)
VH: QVQLKESGPGLVAPSQSLSITCTVSGFSLTTYDISWIRQPPGKGLEWLGVIWTGGGTNYNSTFMSRLSINKDNSKSQVFLKMNSLQTDDTAIYYCVRVDYWGQGTSVTVSS
VL: DVVMTQTPLSLPVSLGDQASISCRSSQSLVHSNGNTYLHWFLQKPGQSPKLLIYKVSNRFPGVPDRFSGSGSGTDFTLKISRVEAEDLGVYFCSQNTHVPWTFGGGTKLEIKR
notes: Whole antibody from a mouse hybridoma, purified on Protein G; also called HKB6单克隆抗体

Reference: CN111320691A (CHENG LIANSHENG; LIU JING, dated 2020)
